The subject of data set [1] is Synechocystis PCC6803. The data set is described as follows: Toxicity assay for erythritol: resistance of Synechocystis PCC6803, growth rate. It counts as cell-based. To be noted: BG-11, pH 8.0, low light ~40 μE, 30° C. As for the experimental part: FIG. 4. Toxicity assay for erythritol. Synechocystis PCC6803 was inoculated in 10 ml BG-11 supplemented with 10 mM TES-buffer-NaOH (pH=8.0) and with 10 μg/ml kanamycine at an OD of 0.2. The culture was incubated at low light intensity (˜40 μE), 30° C. and shaking at 120 rpm. It was clearly shown (FIG. 4) that up to a concentration of 10 gr/L erythritol, cultures are not affected with respect to growth-rate.

The conditions of data set [2]: substrate D-erythrose; cited from earlier work.
For data set [3] the following is noted: substrate D-erythrose-4-P; cited from earlier work.
For data set [4] the following is noted: co-factor NADPH; cited from earlier work.

The Km is the substrate concentration at which the rate is half of its maximum.

Like-named read-outs stand apart in the source and are kept apart here.

`OC[C@@H](O)[C@@H](O)CO` [erythritol]: the “erythritol concentration up to which cultures are not affected with respect to growth-rate” value in data set [1] is listed as not above 10 gr/L.

B1: GLD1: reductase from Hypocrea jecorina (Trichoderma reesei), SEQ ID NO: 11, 12 (protein, listed as Hypocrea jecorina)
chain: MSSGRTVTLNTGYKIPQIGYGTWQAAPGEVGAGVFEALKVGYRHLDLAKVYGNQKEVGEGIKKALAEVPGLKREDIFITSKLWNNSHKPEDVEPALDDTLAELGLDYLDLYLIHWPVAFAPGADLFPKSEDGSEVQLNQNVSIVQTWKAMTELPKSKVRSVGVSNFTIEHLDAVIEATGVVPAVNQIERHPRLPNQPLIDYCAKKGIIITAYSAFGNNTKGLPLLVSSDEVKAVADNLSKKQGKTVTPAQVILAWSQIGGHTVIPKSVTKARIAENFQEVELDDEAIAALNKLGEKPQRFNIPYTYKPRWNINLFNTEEEKAAAHTAVIKL
In the case of B1, the Km in data set [2] was 16 to 134 µM.

B2: ALR1: reductase from Aspergillus niger, SEQ ID NO: 13, 14 (protein)
chain: MSLGKKVTLNSGAQIPQLGFGTWQSAPGQVGDAVYEALKAGYRHLDLATIYQNQREVAEGIKRAYKDVPGLKREDIFITSKLWNSQHDPAVVEKALDECLAELELDYLDLYLVHWPVSFTTGSELFPLVKDSSVEGGDVVINDDISIVDTWKAMTQLPKSKARTVGVSNHMIPHLEAIINATGVVPAVNQIERHPVLQSNELIEYCQKKGIHVTAYSAFGNNGFGVPLLVTRPEVKEVAESASKRLGTTVTPAQVILAWSQVGGHSVIPKSVTPSRIHENFKEVELTPEEIAKVSELGKDRRRYNTPYVANTPRWDIDIFGEEEEKPAGHKVIV
modifications: Aspergillus niger
In the case of B2, in data set [2], the “D-erythrose Kcat” value was 25 s⁻¹ and the Km was 139 µM.

B3: YidA: phosphatase from Escherichia coli, SEQ ID NO: 1, 2 (protein, listed as Escherichia coli)
chain: MAIKLIAIDMDGTLLLPDHTISPAVKNAIAAARARGVNVVLTTGRPYAGVHNYLKELHMEQPGDYCITYNGALVQKAADGSTVAQTALSYDDYRFLEKLSREVGSHFHALDRTTLYTANRDISYYTVHESFVATIPLVFCEAEKMDPNTQFLKVMMIDEPAILDQAIARIPQEVKEKYTVLKSAPYFLEILDKRVNKGTGVKSLADVLGIKPEEIMAIGDQENDIAMIEYAGVGVAMDNAIPSVKEVANFVTKSNLEDGVAFAIEKYVLN
B3: in data set [3], the “D-erythrose-4-P Kcat” value is 19 s⁻¹ and the Km was 19 µM.

B4: ErCm: reductase from Candida magnolia JH110, SEQ ID NO: 9, 10 (protein, listed as Candida magnoliae)
chain: MSSTYTLTRLSAPSMVLNSGSQIPAVGYGLWKQQGSEAKDSVRCAIESGYRHLDCATAYQNHKEVGQAIREAGVPRDELWITSKVWGTHFDNPEEGLDDILEELGVEYLDLLLLHLPVAFKRNPEDPKQLRGLPVDHDMKYADVWARMEKLPKSKVRNIGVSNLTVRALDELLQTAKVTPAVNQVEMHPNLPQKKLLDYCKSKGIVVQAYSPLAQGQHENPVVTDIADDLGVSPAQVVLSWGALRGTNILPKSSTPSRIRENLELIQLSDDHMRRIDALARR
B4: in data set [2], the “D-erythrose Kcat” value is 7.6 s⁻¹ and the Km is 8500 µM. Besides, in data set [4], the Km is 16 µM and the “NADPH Kcat” value was 48 s⁻¹.

B5: TM1254: phosphatase from Thermotoga maritima MSB8, SEQ ID NO: 5, 6 (protein, listed as Thermotoga maritima)
chain: MEAVIFDMDGVLMDTEPLYFEAYRRVAESYGKPYTEDLHRRIMGVPEREGLPILMEALEIKDSLENFKKRVHEEKKRVFSELLKENPGVREALEFVKSKRIKLALATSTPQREALERLRRLDLEKYFDVMVFGDQVKNGKPDPEIYLLVLERLNVVPEKVVVFEDSKSGVEAAKSAGIERIYGVVHSLNDGKALLEAGAVALVKPEEILNVLKEVL
As to B5, in data set [3], the “D-erythrose-4-P Vmax” value was 2.63 umol/min/mg protein and the Km was 152 µM.

B6: Gcy1p: erythrose reductase from Saccharomyces cerevisiae, SEQ ID NO: 7, 8 (protein, listed as Saccharomyces cerevisiae)
chain: MPATLHDSTKILSLNTGAQIPQIGLGTWQSKENDAYKAVLTALKDGYRHIDTAAIYRNEDQVGQAIKDSGVPREEIFVTTKLWCTQHHEPEVALDQSLKRLGLDYVDLYLMHWPARLDPAYIKNEDILSVPTKKDGSRAVDITNWNFIKTWELMQELPKTGKTKAVGVSNFSINNLKDLLASQGNKLTPAANQVEIHPLLPQDELINFCKSKGIVVEAYSPLGSTDAPLLKEPVILEIAKKNNVQPGHVVISWHVQRGYVVLPKSVNPDRIKTNRKIFTLSTEDFEAINNISKEKGEKRVVHPNWSPFEVFK
Turning to B6, the Km in data set [2] is 3400 µM.
